Conditions in all cases: both partners purified
In assay [1] the target is T1, EcSufS, C-terminal his-tagged (wild type) (Escherichia coli, UniProt P77444 1-406, PLP (pyridoxal 5'-phosphate) cofactor).
T1 construct: EcSufS, cysteine desulfurase SufS of Escherichia coli, UniProt P77444; the gene was cloned; also called WT EcSufS; cysteine desulfurase SufS; source: E. coli BL21(DE3)Δsuf, pET44, autoinduction, purified (Ni2+ HisTrap HP); not shown: His tag, C-terminal, kept
T1 sequence: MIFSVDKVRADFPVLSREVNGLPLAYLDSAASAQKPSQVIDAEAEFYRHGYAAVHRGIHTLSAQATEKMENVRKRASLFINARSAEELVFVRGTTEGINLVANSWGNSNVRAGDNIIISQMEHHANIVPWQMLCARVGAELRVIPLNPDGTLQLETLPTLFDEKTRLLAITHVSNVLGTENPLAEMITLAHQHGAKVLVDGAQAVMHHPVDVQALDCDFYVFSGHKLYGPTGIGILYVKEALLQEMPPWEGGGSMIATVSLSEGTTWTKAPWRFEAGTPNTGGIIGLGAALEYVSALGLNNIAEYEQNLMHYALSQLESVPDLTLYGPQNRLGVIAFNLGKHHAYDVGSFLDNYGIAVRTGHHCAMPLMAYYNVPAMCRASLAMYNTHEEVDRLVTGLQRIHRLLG
Briefly: fluorescence polarisation; 100 nM BODIPY-FL-labeled EcSufE titrated with EcSufS; 50 mM Mops pH 8.0, 150 mM NaCl, 0.1 mg/ml bovine serum albumin, 25 °C, 30 min; presence of 500 μM cysteine; apparent KD. (Polarisation of emitted light reports the rotation of a fluorescent probe.)

Assay [2] addresses T1, EcSufS, C-terminal his-tagged (wild …). Kind of assay: fluorescence polarisation; 100 nM BODIPY-FL-labeled EcSufE titrated with EcSufS; 50 mM Mops pH 8.0, 150 mM NaCl, 0.1 mg/ml bovine serum albumin, 25 °C, 30 min; absence of cysteine; apparent KD.
The target of assay [3] is T2, H343A EcSufS, C-terminal his-tagged (Escherichia coli, UniProt P77444 1-406, H343A, PLP (pyridoxal 5'-phosphate) cofactor).
T2 construct: EcSufS of Escherichia coli, UniProt P77444, with H343A; also called H343A SufS; source: E. coli BL21(DE3)Δsuf, pET44, autoinduction, purified (Ni2+ HisTrap HP); not shown: His tag, C-terminal, kept
T2 sequence: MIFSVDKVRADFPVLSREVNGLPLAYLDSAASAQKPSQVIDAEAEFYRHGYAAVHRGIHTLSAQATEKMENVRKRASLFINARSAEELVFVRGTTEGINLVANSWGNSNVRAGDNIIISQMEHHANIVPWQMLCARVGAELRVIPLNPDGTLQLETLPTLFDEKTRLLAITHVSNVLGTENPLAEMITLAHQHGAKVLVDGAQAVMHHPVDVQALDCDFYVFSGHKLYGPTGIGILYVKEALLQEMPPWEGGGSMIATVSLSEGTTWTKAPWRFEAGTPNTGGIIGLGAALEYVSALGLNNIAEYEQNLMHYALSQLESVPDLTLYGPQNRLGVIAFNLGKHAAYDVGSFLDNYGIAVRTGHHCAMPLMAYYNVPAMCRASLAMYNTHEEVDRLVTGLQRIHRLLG
The assay is described as above.

Assay [4] deals with T3, D346A EcSufS, C-terminal his-tagged (Escherichia coli, UniProt P77444 1-406, D346A, PLP (pyridoxal 5'-phosphate) cofactor).
T3 construct: EcSufS of Escherichia coli, UniProt P77444, with D346A; also called D346A SufS; source: E. coli BL21(DE3)Δsuf, pET44, autoinduction, purified (Ni2+ HisTrap HP); not shown: His tag, C-terminal, kept
T3 sequence: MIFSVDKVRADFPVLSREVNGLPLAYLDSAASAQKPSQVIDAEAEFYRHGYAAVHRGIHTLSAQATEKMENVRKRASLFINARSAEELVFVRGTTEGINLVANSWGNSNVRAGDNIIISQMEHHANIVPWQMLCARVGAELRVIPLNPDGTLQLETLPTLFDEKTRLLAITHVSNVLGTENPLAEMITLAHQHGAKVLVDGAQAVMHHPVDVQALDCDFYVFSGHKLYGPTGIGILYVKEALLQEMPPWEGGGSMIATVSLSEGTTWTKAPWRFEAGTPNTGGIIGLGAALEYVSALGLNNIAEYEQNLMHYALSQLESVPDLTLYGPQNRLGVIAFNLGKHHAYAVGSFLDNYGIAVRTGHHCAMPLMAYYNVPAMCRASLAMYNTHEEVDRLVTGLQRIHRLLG
Described as above.

For assay [5], the target named is T4, F350A EcSufS, C-terminal his-tagged (Escherichia coli, UniProt P77444 1-406, F350A, PLP (pyridoxal 5'-phosphate) cofactor).
T4 construct: EcSufS of Escherichia coli, UniProt P77444, with F350A; also called F350A SufS; source: E. coli BL21(DE3)Δsuf, pET44, autoinduction, purified (Ni2+ HisTrap HP); not shown: His tag, C-terminal, kept
T4 sequence: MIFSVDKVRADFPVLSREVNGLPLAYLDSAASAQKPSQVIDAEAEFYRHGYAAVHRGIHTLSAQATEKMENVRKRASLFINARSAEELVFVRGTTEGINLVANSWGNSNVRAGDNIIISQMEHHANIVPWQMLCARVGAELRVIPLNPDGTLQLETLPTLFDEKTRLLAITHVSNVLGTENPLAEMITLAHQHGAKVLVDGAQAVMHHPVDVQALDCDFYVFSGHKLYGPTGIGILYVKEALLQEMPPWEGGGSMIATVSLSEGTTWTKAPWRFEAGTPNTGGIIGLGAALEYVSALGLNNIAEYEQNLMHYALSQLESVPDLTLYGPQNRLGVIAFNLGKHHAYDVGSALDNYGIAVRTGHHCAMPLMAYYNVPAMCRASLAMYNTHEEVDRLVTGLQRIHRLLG
The description is as above.

Where only a bound is given, the exact number is not on record here.

B1: BODIPY-FL-labeled C51A/E107C EcSufE (natural protein, Escherichia coli)
chain: MALLPDKEKLLRNFLRCANWEEKYLYIIELGQRLPELRDEDRSPQNSIQGAQSQVWIVMRQNAQGIIELQGDSDAAIVKGLIAVVFILYDQMTPQDIVNFDVRPWFCKMALTQHLTPSRSQGLEAMIRAIRAKAAALS
modifications: BODIPY-FL maleimide label (labeling efficiency 60 to 80%)
notes: EcSufE, transpersulfurase SufE of Escherichia coli, UniProt P76194, with C51A and E107C; also called "WT" EcSufE (double mutant background); C51A/E107C EcSufE control
For the molecule B1, the Kd in assay [1] is 0.6 µM; in assay [2] it was 5.2 µM; in assay [3], more than 20 µM; in assay [4], more than 40 µM; in assay [5], more than 40 µM.

(Values after paper PMC11408855, “The structure of the SufS–SufE complex reveals interactions driving protected persulfide transfer in iron-sulfur cluster biogenesis” (The Journal of Biological Chemistry, 2024).)
